Laboratory results reported in publication PMC3310290 (2012).
Positions of bridges follow the written chain, without caps; N, C: chain ends. No end group written: not given here. fluorescein = Fluorescein label on the N-terminus, attached via Aca

Assays:
[1] = target: T1, fibrin (Homo sapiens, UniProt P02671); experiment: fibrin plate depletion assay
T1 chain 1: ADSGEGDFLAEGGGVR
T1 chain 2: QGVNDNEEGFFSAR
T1 chain 3: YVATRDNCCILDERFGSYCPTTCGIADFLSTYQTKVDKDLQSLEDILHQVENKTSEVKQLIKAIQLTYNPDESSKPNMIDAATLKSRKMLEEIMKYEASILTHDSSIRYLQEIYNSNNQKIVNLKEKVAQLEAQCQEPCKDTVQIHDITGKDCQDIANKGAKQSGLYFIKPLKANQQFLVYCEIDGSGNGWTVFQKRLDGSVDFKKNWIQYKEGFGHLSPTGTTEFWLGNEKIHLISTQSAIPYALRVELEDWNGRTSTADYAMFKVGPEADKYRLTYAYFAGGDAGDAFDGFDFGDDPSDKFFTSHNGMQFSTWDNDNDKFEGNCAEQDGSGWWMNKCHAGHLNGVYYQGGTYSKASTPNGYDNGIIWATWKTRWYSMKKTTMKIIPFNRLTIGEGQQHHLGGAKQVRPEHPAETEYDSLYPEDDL

[2] = target: T2, fibrinogen (Homo sapiens, UniProt P02671); experiment: ITC
T2 chain 1: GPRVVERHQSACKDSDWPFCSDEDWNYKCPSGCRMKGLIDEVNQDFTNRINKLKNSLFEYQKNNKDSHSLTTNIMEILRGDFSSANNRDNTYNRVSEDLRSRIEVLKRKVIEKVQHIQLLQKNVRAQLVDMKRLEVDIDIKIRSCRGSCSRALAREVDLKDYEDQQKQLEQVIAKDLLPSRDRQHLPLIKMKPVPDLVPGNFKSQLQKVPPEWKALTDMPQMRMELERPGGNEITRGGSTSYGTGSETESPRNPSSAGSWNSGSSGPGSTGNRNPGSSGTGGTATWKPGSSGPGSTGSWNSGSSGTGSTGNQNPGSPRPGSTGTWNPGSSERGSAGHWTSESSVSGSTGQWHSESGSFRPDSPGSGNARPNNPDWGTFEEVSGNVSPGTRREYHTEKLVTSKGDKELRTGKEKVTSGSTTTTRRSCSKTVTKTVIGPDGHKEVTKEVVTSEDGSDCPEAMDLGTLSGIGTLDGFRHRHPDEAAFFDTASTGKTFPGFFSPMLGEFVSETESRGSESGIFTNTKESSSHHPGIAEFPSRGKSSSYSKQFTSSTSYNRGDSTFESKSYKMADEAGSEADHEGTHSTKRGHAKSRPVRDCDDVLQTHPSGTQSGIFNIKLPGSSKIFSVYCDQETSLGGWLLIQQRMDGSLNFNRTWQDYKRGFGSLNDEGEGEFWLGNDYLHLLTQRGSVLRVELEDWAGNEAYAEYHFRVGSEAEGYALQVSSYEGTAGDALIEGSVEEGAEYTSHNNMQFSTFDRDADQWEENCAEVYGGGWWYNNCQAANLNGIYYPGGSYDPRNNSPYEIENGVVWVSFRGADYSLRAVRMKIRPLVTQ
T2 chain 2: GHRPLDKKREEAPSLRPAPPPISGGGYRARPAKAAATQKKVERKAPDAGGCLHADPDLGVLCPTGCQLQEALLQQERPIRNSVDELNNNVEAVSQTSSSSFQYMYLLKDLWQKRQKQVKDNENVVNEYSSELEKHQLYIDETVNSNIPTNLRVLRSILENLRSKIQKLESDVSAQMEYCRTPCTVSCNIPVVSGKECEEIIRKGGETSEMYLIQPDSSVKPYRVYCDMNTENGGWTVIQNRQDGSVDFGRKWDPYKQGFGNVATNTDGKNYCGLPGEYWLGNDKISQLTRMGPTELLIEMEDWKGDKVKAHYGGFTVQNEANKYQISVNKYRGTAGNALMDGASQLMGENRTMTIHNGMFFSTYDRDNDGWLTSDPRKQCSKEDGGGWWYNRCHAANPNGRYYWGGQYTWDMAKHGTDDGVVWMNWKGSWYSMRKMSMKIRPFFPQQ
T2 chain 3: T1 chain 3

[3] = target: T2, fibrinogen; experiment: FP displacement
[4] = target: T3, DD(E) DD(E) (Homo sapiens, UniProt P02671); experiment: FP displacement
T3 chain 1: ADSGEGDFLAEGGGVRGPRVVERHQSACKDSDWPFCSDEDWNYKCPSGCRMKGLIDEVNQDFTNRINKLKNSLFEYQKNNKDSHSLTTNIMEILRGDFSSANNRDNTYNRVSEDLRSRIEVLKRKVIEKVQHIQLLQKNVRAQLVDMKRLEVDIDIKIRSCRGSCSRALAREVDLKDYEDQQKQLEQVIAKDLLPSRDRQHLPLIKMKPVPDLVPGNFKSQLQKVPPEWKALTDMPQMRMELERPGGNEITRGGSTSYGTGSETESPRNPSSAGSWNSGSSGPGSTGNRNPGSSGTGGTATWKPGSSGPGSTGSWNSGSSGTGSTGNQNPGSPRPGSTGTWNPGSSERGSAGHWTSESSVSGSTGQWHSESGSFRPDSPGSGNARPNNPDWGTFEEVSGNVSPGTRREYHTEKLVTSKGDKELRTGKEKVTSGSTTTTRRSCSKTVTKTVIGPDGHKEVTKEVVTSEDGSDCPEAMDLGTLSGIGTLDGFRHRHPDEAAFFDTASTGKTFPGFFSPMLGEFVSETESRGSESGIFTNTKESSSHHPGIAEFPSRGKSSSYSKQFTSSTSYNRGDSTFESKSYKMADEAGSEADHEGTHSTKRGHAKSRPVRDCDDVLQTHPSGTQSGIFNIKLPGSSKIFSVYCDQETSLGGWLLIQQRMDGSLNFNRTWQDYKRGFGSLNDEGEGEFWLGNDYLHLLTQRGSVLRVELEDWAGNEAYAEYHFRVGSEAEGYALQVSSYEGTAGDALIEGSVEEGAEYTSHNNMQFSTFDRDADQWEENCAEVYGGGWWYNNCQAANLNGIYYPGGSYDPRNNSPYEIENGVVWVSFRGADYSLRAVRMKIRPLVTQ
T3 chain 2: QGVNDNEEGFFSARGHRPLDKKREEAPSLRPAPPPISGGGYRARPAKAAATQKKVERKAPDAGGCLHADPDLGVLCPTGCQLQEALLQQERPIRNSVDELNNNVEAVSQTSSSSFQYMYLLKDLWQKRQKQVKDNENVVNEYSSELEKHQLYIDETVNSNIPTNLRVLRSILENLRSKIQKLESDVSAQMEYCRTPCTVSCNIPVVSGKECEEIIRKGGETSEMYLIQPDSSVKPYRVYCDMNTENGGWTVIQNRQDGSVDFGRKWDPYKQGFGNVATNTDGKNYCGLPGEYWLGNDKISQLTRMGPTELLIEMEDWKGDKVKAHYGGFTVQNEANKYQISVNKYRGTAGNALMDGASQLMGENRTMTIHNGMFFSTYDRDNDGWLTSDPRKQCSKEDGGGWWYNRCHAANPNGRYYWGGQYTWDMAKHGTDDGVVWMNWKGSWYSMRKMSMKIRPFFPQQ
T3 chain 3: T1 chain 3

[5] = target: T3, DD(E) DD(E); experiment: fluorescence polarization
[6] = target: T2, fibrinogen; experiment: fluorescence polarization

B1: Tn6-1-Gd (peptide)
chain: GGWFHCPYDLCHIL-NH2
modifications: disulfide 6-11; not fully specified (N-terminus); also: Gd(III) chelated by DTPA
Binder B1 has a Kd [1] of 3.1 µM.

WECPYGLCWIQ [Tn6-2a] showed a Kd [1] of 2.9 µM and a Kd [2] of over 50 µM.

For LPCDYYGTCLD [Tn7-3], the Kd [2] was over 20 µM.

Binder WFHCPYDLCHIL [Tn6-1] has a Kd [3] of over 200 µM.

Binder LPCDYYGTCLD-NH2 (disulfide 3-9; not fully specified (N-terminus); also: Gd(III) chelated by DTPA) [Tn7-3a-Gd] has a Ki [4] of 2.9 µM.

For {fluorescein-Aca}-QWECPYGLCWIQ (cysteine pairing not given here) [Tn6-2b-Fl], the Kd [5] was 0.057 µM and the Kd [6] was 22 µM.

B2: Tn7-3b-Gd (peptide)
chain: GLPCDYYGTCLD-NH2
modifications: disulfide 4-10; not fully specified (N-terminus); also: Gd(III) chelated by DTPA
Work on B2 yielded a Kd [1] of 8.4 µM.
